Laboratory results reported in publication PMC12623744 (Scientific Reports, 2025).
Positions of bridges follow the written chain, without caps; N, C: chain ends. Non-standard residues stand in square brackets, D forms with d. Residues, ends and D or L forms follow the SMILES beside them. Nle = CCCC[C@H](N)C(=O)O

T1: HVEM-His protein (UniProt Q92956 39-202, labelled with RED-tris-NTA 2nd Generation dye on the His tag (spectral shift only))
T1 construct: Herpes virus entry mediator (HVEM); No catalogue number printed; also called herpes virus entry mediator; source: bought: ACROBiosystems
T1 sequence (looked up): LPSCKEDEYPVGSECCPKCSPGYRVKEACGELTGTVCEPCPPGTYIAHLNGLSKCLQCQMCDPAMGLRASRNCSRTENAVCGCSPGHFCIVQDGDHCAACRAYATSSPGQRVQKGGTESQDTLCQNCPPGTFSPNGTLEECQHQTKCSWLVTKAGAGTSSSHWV


Tests used:
HVEM/LIGHT complex = assay: Competitive ELISA, inhibition of HVEM/LIGHT complex formation; type: biochemical, human; conditions: across all tested concentrations (50, 12.5, 3.125 µM)
Method: To assess the inhibitory properties of the peptides the ELISA was conducted. Based on the obtained results, it can be concluded that the inhibitory properties of the peptides are strongly correlated with their affinity to HVEM as determined by theoretical methods, as well as with those measured by SpS.
ELISA was conducted using transparent polystyrene 96-well plates (Brand, Wertheim, Germany). Wells were coated with HVEM-His protein at concentration 6 µg/mL dissolved in PBS-T (100 µL per well) and incubated overnight at 4 °C. Unbound sites on the wells by HVEM were blocked with 5% bovine serum albumin (BSA) in PBS-T (200 µL per well). Peptides at three concentrations 50 µM, 12.5 µM, and 3.125 µM dissolved in PBS-T were added and incubated (200 µL per well). […] In the next step horseradish peroxidase (HRP)-conjugated goat antibody (Bio-Rad, Hercules, USA) at dilution 1:3000 in PBS-T (100µL per well) was applied. After each step, wells were washed five times with 200 µL of PBS-T. Incubations were carried out at 37 °C for 2 h, except for the antibody, which was incubated for 1 h. Finally, 200 µL of TMB substrate (Thermo Fisher Scientific,Waltham, MA, USA) was added, and after 15 min of incubation in the dark, absorbance was measured at 492 nm and 650 nm using an Infinite M200 Pro reader (Tecan, Switzerland). The negative control consisted of PBS-T buffer without peptides, while the positive control was mouse anti-human HVEM antibodies (1 µg/well, Bio-Rad, Hercules, CA, USA; #MCA6072GA). Each experiment was performed in three biological replicates, each consisting of three technical replicates and data were analyzed using one-way ANOVA with Dunnett’s post-hoc test in GraphPad Prism (San Diego, USA).

HVEM-His protein = biological target: T1, HVEM-His protein; assay: spectral shift (SpS); Monolith X; HVEM-His labelled with His-Tag Labeling Kit RED-tris-NTA 2nd Generation, final 50 nM; peptides 2 µM to 6.1 pM; PBS-T (0.05% Tween-20, 0.3 M NaCl, pH 7.4); fluorescence ratio 670/650 nm; 25 °C; apparent Kd (peptides aggregated at higher concentrations); conditions: both partners purified

Molecule	inhibition of HVEM/LIGHT complex formation (HVEM/LIGHT complex)	Kd (HVEM-His protein) [µM]
CC[C@H](C)[C@H](NC(=O)[C@@H](NC(C)=O)[C@@H](C)O)C(=O)N[C@H]1CSSC[C@@H](C(=O)N[C@@H](CCC(N)=O)C(=O)N[C@@H](CO)C(N)=O)NC(=O)[C@H](CO)NC(=O)[C@H](C(C)C)NC(=O)[C@H](CC(C)C)NC(=O)[C@H](CC(C)C)NC(=O)[C@H](CCC(=O)O)NC(=O)[C@H](CC(C)C)NC(=O)[C@H](CCC(=O)O)NC(=O)[C@H](CCC(=O)O)NC(=O)[C@@H]2CCCN2C(=O)[C@H](Cc2ccc(O)cc2)NC(=O)[C@H](CCCNC(=N)N)NC(=O)[C@@H]2CCCN2C(=O)[C@H]([C@@H](C)O)NC(=O)[C@H](CCCNC(=N)N)NC(=O)[C@H](CCCCN)NC(=O)[C@H](Cc2ccc(O)cc2)NC(=O)[C@H](CC(C)C)NC(=O)CNC(=O)[C@H](Cc2c[nH]cn2)NC1=O [light4] (Ac-TICHGLYKRTPRYPEELELLVSCQS-NH2; disulfide 3-23)	below 10%	–
Ac-ECGEEVVVRVLDERLVRLRDGTRSYFGAFCV-NH2 (disulfide 2-30; SMILES CC(=O)N[C@@H](CCC(=O)O)C(=O)N[C@H]1CSSC[C@@H](C(=O)N[C@H](C(N)=O)C(C)C)NC(=O)[C@H](Cc2ccccc2)NC(=O)[C@H](C)NC(=O)CNC(=O)[C@H](Cc2ccccc2)NC(=O)[C@H](Cc2ccc(O)cc2)NC(=O)[C@H](CO)NC(=O)[C@H](CCCNC(=N)N)NC(=O)[C@H]([C@@H](C)O)NC(=O)CNC(=O)[C@H](CC(=O)O)NC(=O)[C@H](CCCNC(=N)N)NC(=O)[C@H](CC(C)C)NC(=O)[C@H](CCCNC(=N)N)NC(=O)[C@H](C(C)C)NC(=O)[C@H](CC(C)C)NC(=O)[C@H](CCCNC(=N)N)NC(=O)[C@H](CCC(=O)O)NC(=O)[C@H](CC(=O)O)NC(=O)[C@H](CC(C)C)NC(=O)[C@H](C(C)C)NC(=O)[C@H](CCCNC(=N)N)NC(=O)[C@H](C(C)C)NC(=O)[C@H](C(C)C)NC(=O)[C@H](C(C)C)NC(=O)[C@H](CCC(=O)O)NC(=O)[C@H](CCC(=O)O)NC(=O)CNC1=O, Fragment 210-240 of LIGHT with two residues substituted by cysteines for a disulfide bond; also called peptide 2; source: synthetic peptide (SPPS, RP-HPLC; disulfide bond formed by air oxidation)) [light2]	–	1.38
Ac-EAGEEVVCRVLDERLVRLRDGTRSYCGAF[Nle]V-NH2 (disulfide 8-26; SMILES CCCC[C@H](NC(=O)[C@H](Cc1ccccc1)NC(=O)[C@H](C)NC(=O)CNC(=O)[C@@H]1CSSC[C@H](NC(=O)[C@@H](NC(=O)[C@@H](NC(=O)[C@H](CCC(=O)O)NC(=O)[C@H](CCC(=O)O)NC(=O)CNC(=O)[C@H](C)NC(=O)[C@H](CCC(=O)O)NC(C)=O)C(C)C)C(C)C)C(=O)N[C@@H](CCCNC(=N)N)C(=O)N[C@@H](C(C)C)C(=O)N[C@@H](CC(C)C)C(=O)N[C@@H](CC(=O)O)C(=O)N[C@@H](CCC(=O)O)C(=O)N[C@@H](CCCNC(=N)N)C(=O)N[C@@H](CC(C)C)C(=O)N[C@@H](C(C)C)C(=O)N[C@@H](CCCNC(=N)N)C(=O)N[C@@H](CC(C)C)C(=O)N[C@@H](CCCNC(=N)N)C(=O)N[C@@H](CC(=O)O)C(=O)NCC(=O)N[C@@H]([C@@H](C)O)C(=O)N[C@@H](CCCNC(=N)N)C(=O)N[C@@H](CO)C(=O)N[C@@H](Cc2ccc(O)cc2)C(=O)N1)C(=O)N[C@H](C(N)=O)C(C)C, Fragment 210-240 of LIGHT with two residues substituted by cysteines for a disulfide bond; the synthesized peptide has norleucine there; also called peptide 1; source: synthetic peptide (SPPS, RP-HPLC; disulfide bond formed by air oxidation)) [light1]	–	1.68
Ac-TICHGLYKRTPRYPEELELLVSCQS-NH2 (disulfide 3-23; SMILES CC[C@H](C)[C@H](NC(=O)[C@@H](NC(C)=O)[C@@H](C)O)C(=O)N[C@H]1CSSC[C@@H](C(=O)N[C@@H](CCC(N)=O)C(=O)N[C@@H](CO)C(N)=O)NC(=O)[C@H](CO)NC(=O)[C@H](C(C)C)NC(=O)[C@H](CC(C)C)NC(=O)[C@H](CC(C)C)NC(=O)[C@H](CCC(=O)O)NC(=O)[C@H](CC(C)C)NC(=O)[C@H](CCC(=O)O)NC(=O)[C@H](CCC(=O)O)NC(=O)[C@@H]2CCCN2C(=O)[C@H](Cc2ccc(O)cc2)NC(=O)[C@H](CCCNC(=N)N)NC(=O)[C@@H]2CCCN2C(=O)[C@H]([C@@H](C)O)NC(=O)[C@H](CCCNC(=N)N)NC(=O)[C@H](CCCCN)NC(=O)[C@H](Cc2ccc(O)cc2)NC(=O)[C@H](CC(C)C)NC(=O)CNC(=O)[C@H](Cc2c[nH]cn2)NC1=O, Residues 161-185 of LIGHT with two residues substituted by cysteines for a disulfide bond; also called peptide 4; source: synthetic peptide (SPPS, RP-HPLC; disulfide bond formed by air oxidation)) [light4]	–	1.72
Ac-TCTHGLYKRTPRYPEELELLVSQCS-NH2 (disulfide 2-24; SMILES CC(=O)N[C@H](C(=O)N[C@H]1CSSC[C@@H](C(=O)N[C@@H](CO)C(N)=O)NC(=O)[C@H](CCC(N)=O)NC(=O)[C@H](CO)NC(=O)[C@H](C(C)C)NC(=O)[C@H](CC(C)C)NC(=O)[C@H](CC(C)C)NC(=O)[C@H](CCC(=O)O)NC(=O)[C@H](CC(C)C)NC(=O)[C@H](CCC(=O)O)NC(=O)[C@H](CCC(=O)O)NC(=O)[C@@H]2CCCN2C(=O)[C@H](Cc2ccc(O)cc2)NC(=O)[C@H](CCCNC(=N)N)NC(=O)[C@@H]2CCCN2C(=O)[C@H]([C@@H](C)O)NC(=O)[C@H](CCCNC(=N)N)NC(=O)[C@H](CCCCN)NC(=O)[C@H](Cc2ccc(O)cc2)NC(=O)[C@H](CC(C)C)NC(=O)CNC(=O)[C@H](Cc2c[nH]cn2)NC(=O)[C@H]([C@@H](C)O)NC1=O)[C@@H](C)O, Residues 161-185 of LIGHT with two residues substituted by cysteines for a disulfide bond; also called peptide 3; source: synthetic peptide (SPPS, RP-HPLC; disulfide bond formed by air oxidation)) [light3]	–	0.58
Ac-TCTHGLYKRTPRYPEELLLLVSQCS-NH2 (disulfide 2-24; SMILES CC(=O)N[C@H](C(=O)N[C@H]1CSSC[C@@H](C(=O)N[C@@H](CO)C(N)=O)NC(=O)[C@H](CCC(N)=O)NC(=O)[C@H](CO)NC(=O)[C@H](C(C)C)NC(=O)[C@H](CC(C)C)NC(=O)[C@H](CC(C)C)NC(=O)[C@H](CC(C)C)NC(=O)[C@H](CC(C)C)NC(=O)[C@H](CCC(=O)O)NC(=O)[C@H](CCC(=O)O)NC(=O)[C@@H]2CCCN2C(=O)[C@H](Cc2ccc(O)cc2)NC(=O)[C@H](CCCNC(=N)N)NC(=O)[C@@H]2CCCN2C(=O)[C@H]([C@@H](C)O)NC(=O)[C@H](CCCNC(=N)N)NC(=O)[C@H](CCCCN)NC(=O)[C@H](Cc2ccc(O)cc2)NC(=O)[C@H](CC(C)C)NC(=O)CNC(=O)[C@H](Cc2c[nH]cn2)NC(=O)[C@H]([C@@H](C)O)NC1=O)[C@@H](C)O, Analogue of light3 (residues 161-185 of LIGHT with two cysteines for a disulfide bond) in which glutamic acid 178 was replaced by leucine; source: synthetic peptide (SPPS, RP-HPLC; disulfide bond formed by air oxidation)) [light3_E178L]	–	0.71
